The text below walks through data of patent US20020004226A1.

The target of the assay is soluble LDL receptor from the supernatant of IFN-gamma-treated human WISH cells (antiviral factor) (human) (UniProt P01130). The assay can be described thus: immunoaffinity chromatography on agarose-coupled C7; antiviral activity recovered in the pH 11 eluate (el.2 and el.3) relative to the load.
Chain of UniProt P01130 (P01130 25-313 limits assumed): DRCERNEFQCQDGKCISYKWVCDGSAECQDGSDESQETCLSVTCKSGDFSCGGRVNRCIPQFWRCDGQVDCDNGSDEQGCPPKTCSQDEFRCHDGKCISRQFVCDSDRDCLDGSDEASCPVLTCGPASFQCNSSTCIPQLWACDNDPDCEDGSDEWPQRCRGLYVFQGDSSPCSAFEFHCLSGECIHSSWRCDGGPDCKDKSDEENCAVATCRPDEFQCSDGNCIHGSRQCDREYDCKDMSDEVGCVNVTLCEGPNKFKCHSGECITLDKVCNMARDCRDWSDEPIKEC

“monoclonal antibody C7 (hybridoma C7, ATCC CRL 1691)”: the recovery is 32%.
